Test results from paper PMC3274598 (Analytical Biochemistry, 2011).

T1: RAD9 peptide (Homo sapiens, UniProt Q99638)
T1 chain: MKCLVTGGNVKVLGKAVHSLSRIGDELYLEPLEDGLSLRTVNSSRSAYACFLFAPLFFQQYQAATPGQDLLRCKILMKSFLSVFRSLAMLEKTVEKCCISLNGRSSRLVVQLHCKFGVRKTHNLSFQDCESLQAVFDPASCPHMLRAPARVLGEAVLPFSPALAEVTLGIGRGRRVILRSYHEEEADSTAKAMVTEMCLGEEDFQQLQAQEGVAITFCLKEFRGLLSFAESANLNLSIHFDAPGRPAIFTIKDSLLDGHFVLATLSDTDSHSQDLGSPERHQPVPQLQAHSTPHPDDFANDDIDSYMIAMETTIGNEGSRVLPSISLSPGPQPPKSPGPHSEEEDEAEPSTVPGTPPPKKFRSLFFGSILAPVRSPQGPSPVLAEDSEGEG

T2: ATRIP peptide (Homo sapiens, UniProt Q8WXE1)
T2 chain: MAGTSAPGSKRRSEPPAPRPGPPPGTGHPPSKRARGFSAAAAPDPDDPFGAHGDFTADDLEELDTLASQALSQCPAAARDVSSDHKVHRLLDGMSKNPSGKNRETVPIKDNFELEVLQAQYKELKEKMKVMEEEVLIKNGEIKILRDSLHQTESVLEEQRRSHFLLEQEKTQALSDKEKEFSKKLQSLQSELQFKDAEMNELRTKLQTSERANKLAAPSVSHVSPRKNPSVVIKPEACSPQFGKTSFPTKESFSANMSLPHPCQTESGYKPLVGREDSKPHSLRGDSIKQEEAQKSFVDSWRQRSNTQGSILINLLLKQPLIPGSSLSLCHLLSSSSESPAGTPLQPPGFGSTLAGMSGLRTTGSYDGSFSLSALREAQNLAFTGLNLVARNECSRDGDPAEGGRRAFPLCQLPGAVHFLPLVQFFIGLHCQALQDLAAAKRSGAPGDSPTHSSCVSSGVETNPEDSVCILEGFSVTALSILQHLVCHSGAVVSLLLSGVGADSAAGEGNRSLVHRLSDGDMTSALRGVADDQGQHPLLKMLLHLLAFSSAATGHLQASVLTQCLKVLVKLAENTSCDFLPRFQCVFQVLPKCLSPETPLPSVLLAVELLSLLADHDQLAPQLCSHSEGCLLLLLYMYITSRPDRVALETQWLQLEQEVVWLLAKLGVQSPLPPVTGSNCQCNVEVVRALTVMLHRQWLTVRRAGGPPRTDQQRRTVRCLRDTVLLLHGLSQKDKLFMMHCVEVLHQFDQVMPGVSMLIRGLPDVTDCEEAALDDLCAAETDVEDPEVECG

B1: RPA70N 70N (protein)
chain: MVGQLSEGAIAAIMQKGDTNIKPILQVINIRPITTGNSPPRYRLLMSDGLNTLSSFMLATQLNPLVEEEQLSSNCVCQIHRFIVNTLKDGRRVVILMELEVLKSAEAVGVKIGNPVPYNE

Assays:
[1] = target: T1, RAD9 peptide; assay: anisotropy
[2] = target: T2, ATRIP peptide; assay: NMR
[3] = target: N-terminal OB-fold domain of RPA70 (RPA70N) (human, UniProt P27694 1-120); assay: fluorescence polarisation

| Binder | Kd [1] [µM] | Kd [2] [µM] | IC50 [3] [µM] |
| --- | --- | --- | --- |
| B1 | 51 | 48 | – |
| Ac-DFANDDIDSYMIAME-NH2 [RAD9 peptide (Ac-DFANDDIDSYMIAME-NH2)] | – | – | 102 ± 13.6 |
